We go through 20 molecules from patent US20220040297A1 (Chugai, published 2022).

The chains are these.
B1: GLS3000 Y96F (antibody, name in Kabat numbering, V domains shown)
VH: QVQLVESGGGVVQPGRSLRLSCAASGFTFSNAWMHWVRQAPGKGLEWVAQIKAKSNNYATYYAESVKGRFTISRDDSKNSLYLQMNSLKTEDTAVYYCRYVHYGAYYGVDAWGQGTTVTVSS
VL: DIVMTQSPLSLPVTPGEPASISCRSSQSLVHSNRNTYLHWYQQKPGQAPRLLIYKVSNRFSGVPDRFSGSGSGTDFTLKISRVEAEDVGVYYCGQGTQVPFTFGQGTKLEIK
notes: one-arm format as m2
B2: GLS3000 Y32P (antibody, name in Kabat numbering, V domains shown)
VH: QVQLVESGGGVVQPGRSLRLSCAASGFTFSNAWMHWVRQAPGKGLEWVAQIKAKSNNYATYYAESVKGRFTISRDDSKNSLYLQMNSLKTEDTAVYYCRYVHYGAYYGVDAWGQGTTVTVSS
VL: DIVMTQSPLSLPVTPGEPASISCRSSQSLVHSNRNTPLHWYQQKPGQAPRLLIYKVSNRFSGVPDRFSGSGSGTDFTLKISRVEAEDVGVYYCGQGTQVPYTFGQGTKLEIK
notes: one-arm format as m2
B3: GLS3000 Y96H (antibody, name in Kabat numbering, V domains shown)
VH: QVQLVESGGGVVQPGRSLRLSCAASGFTFSNAWMHWVRQAPGKGLEWVAQIKAKSNNYATYYAESVKGRFTISRDDSKNSLYLQMNSLKTEDTAVYYCRYVHYGAYYGVDAWGQGTTVTVSS
VL: DIVMTQSPLSLPVTPGEPASISCRSSQSLVHSNRNTYLHWYQQKPGQAPRLLIYKVSNRFSGVPDRFSGSGSGTDFTLKISRVEAEDVGVYYCGQGTQVPHTFGQGTKLEIK
notes: one-arm format as m2
B4: GLS3000 Y96L (antibody, name in Kabat numbering, V domains shown)
VH: QVQLVESGGGVVQPGRSLRLSCAASGFTFSNAWMHWVRQAPGKGLEWVAQIKAKSNNYATYYAESVKGRFTISRDDSKNSLYLQMNSLKTEDTAVYYCRYVHYGAYYGVDAWGQGTTVTVSS
VL: DIVMTQSPLSLPVTPGEPASISCRSSQSLVHSNRNTYLHWYQQKPGQAPRLLIYKVSNRFSGVPDRFSGSGSGTDFTLKISRVEAEDVGVYYCGQGTQVPLTFGQGTKLEIK
notes: one-arm format as m2
B5: GLS3000 Y96E (antibody, name in Kabat numbering, V domains shown)
VH: QVQLVESGGGVVQPGRSLRLSCAASGFTFSNAWMHWVRQAPGKGLEWVAQIKAKSNNYATYYAESVKGRFTISRDDSKNSLYLQMNSLKTEDTAVYYCRYVHYGAYYGVDAWGQGTTVTVSS
VL: DIVMTQSPLSLPVTPGEPASISCRSSQSLVHSNRNTYLHWYQQKPGQAPRLLIYKVSNRFSGVPDRFSGSGSGTDFTLKISRVEAEDVGVYYCGQGTQVPETFGQGTKLEIK
notes: one-arm format as m2
B6: GLS3000 Y96D (antibody, name in Kabat numbering, V domains shown)
VH: QVQLVESGGGVVQPGRSLRLSCAASGFTFSNAWMHWVRQAPGKGLEWVAQIKAKSNNYATYYAESVKGRFTISRDDSKNSLYLQMNSLKTEDTAVYYCRYVHYGAYYGVDAWGQGTTVTVSS
VL: DIVMTQSPLSLPVTPGEPASISCRSSQSLVHSNRNTYLHWYQQKPGQAPRLLIYKVSNRFSGVPDRFSGSGSGTDFTLKISRVEAEDVGVYYCGQGTQVPDTFGQGTKLEIK
notes: one-arm format as m2
B7: CE115HA000 H35A (antibody, name in Kabat numbering, V domains shown)
VH: QVQLVESGGGVVQPGRSLRLSCAASGFTFSNAWMAWVRQAPGKGLEWVAQIKAKSNNYATYYAESVKGRFTISRDDSKNSLYLQMNSLKTEDTAVYYCRYVHYGAYYGVDAWGQGTTVTVSS
VL: DIVMTQSPLSLPVTPGEPASISCRSSQSLVHSNRNTYLHWYQQKPGQAPRLLIYKVSNRFSGVPDRFSGSGSGTDFTLKISRVEAEDVGVYYCGQGTQVPYTFGQGTKLEIK
B8: CE115HA000 A56N (antibody, name in Kabat numbering, V domains shown)
VH: QVQLVESGGGVVQPGRSLRLSCAASGFTFSNAWMHWVRQAPGKGLEWVAQIKAKSNNYNTYYAESVKGRFTISRDDSKNSLYLQMNSLKTEDTAVYYCRYVHYGAYYGVDAWGQGTTVTVSS
VL: DIVMTQSPLSLPVTPGEPASISCRSSQSLVHSNRNTYLHWYQQKPGQAPRLLIYKVSNRFSGVPDRFSGSGSGTDFTLKISRVEAEDVGVYYCGQGTQVPYTFGQGTKLEIK
B9: CE115HA000 A52aV (antibody, name in Kabat numbering, V domains shown)
VH: QVQLVESGGGVVQPGRSLRLSCAASGFTFSNAWMHWVRQAPGKGLEWVAQIKVKSNNYATYYAESVKGRFTISRDDSKNSLYLQMNSLKTEDTAVYYCRYVHYGAYYGVDAWGQGTTVTVSS
VL: DIVMTQSPLSLPVTPGEPASISCRSSQSLVHSNRNTYLHWYQQKPGQAPRLLIYKVSNRFSGVPDRFSGSGSGTDFTLKISRVEAEDVGVYYCGQGTQVPYTFGQGTKLEIK
B10: CE115HA000 A52aD (antibody, name in Kabat numbering, V domains shown)
VH: QVQLVESGGGVVQPGRSLRLSCAASGFTFSNAWMHWVRQAPGKGLEWVAQIKDKSNNYATYYAESVKGRFTISRDDSKNSLYLQMNSLKTEDTAVYYCRYVHYGAYYGVDAWGQGTTVTVSS
VL: DIVMTQSPLSLPVTPGEPASISCRSSQSLVHSNRNTYLHWYQQKPGQAPRLLIYKVSNRFSGVPDRFSGSGSGTDFTLKISRVEAEDVGVYYCGQGTQVPYTFGQGTKLEIK
B11: CE115HA000 A32Y (antibody, name in Kabat numbering, V domains shown)
VH: QVQLVESGGGVVQPGRSLRLSCAASGFTFSNYWMHWVRQAPGKGLEWVAQIKAKSNNYATYYAESVKGRFTISRDDSKNSLYLQMNSLKTEDTAVYYCRYVHYGAYYGVDAWGQGTTVTVSS
VL: DIVMTQSPLSLPVTPGEPASISCRSSQSLVHSNRNTYLHWYQQKPGQAPRLLIYKVSNRFSGVPDRFSGSGSGTDFTLKISRVEAEDVGVYYCGQGTQVPYTFGQGTKLEIK
B12: CE115HA000 A52aS (antibody, name in Kabat numbering, V domains shown)
VH: QVQLVESGGGVVQPGRSLRLSCAASGFTFSNAWMHWVRQAPGKGLEWVAQIKSKSNNYATYYAESVKGRFTISRDDSKNSLYLQMNSLKTEDTAVYYCRYVHYGAYYGVDAWGQGTTVTVSS
VL: DIVMTQSPLSLPVTPGEPASISCRSSQSLVHSNRNTYLHWYQQKPGQAPRLLIYKVSNRFSGVPDRFSGSGSGTDFTLKISRVEAEDVGVYYCGQGTQVPYTFGQGTKLEIK
B13: CE115HA000 A52aP (antibody, name in Kabat numbering, V domains shown)
VH: QVQLVESGGGVVQPGRSLRLSCAASGFTFSNAWMHWVRQAPGKGLEWVAQIKPKSNNYATYYAESVKGRFTISRDDSKNSLYLQMNSLKTEDTAVYYCRYVHYGAYYGVDAWGQGTTVTVSS
VL: DIVMTQSPLSLPVTPGEPASISCRSSQSLVHSNRNTYLHWYQQKPGQAPRLLIYKVSNRFSGVPDRFSGSGSGTDFTLKISRVEAEDVGVYYCGQGTQVPYTFGQGTKLEIK
B14: CE115HA000 A52aG (antibody, name in Kabat numbering, V domains shown)
VH: QVQLVESGGGVVQPGRSLRLSCAASGFTFSNAWMHWVRQAPGKGLEWVAQIKGKSNNYATYYAESVKGRFTISRDDSKNSLYLQMNSLKTEDTAVYYCRYVHYGAYYGVDAWGQGTTVTVSS
VL: DIVMTQSPLSLPVTPGEPASISCRSSQSLVHSNRNTYLHWYQQKPGQAPRLLIYKVSNRFSGVPDRFSGSGSGTDFTLKISRVEAEDVGVYYCGQGTQVPYTFGQGTKLEIK
B15: CE115HA000 A56K (antibody, name in Kabat numbering, V domains shown)
VH: QVQLVESGGGVVQPGRSLRLSCAASGFTFSNAWMHWVRQAPGKGLEWVAQIKAKSNNYKTYYAESVKGRFTISRDDSKNSLYLQMNSLKTEDTAVYYCRYVHYGAYYGVDAWGQGTTVTVSS
VL: DIVMTQSPLSLPVTPGEPASISCRSSQSLVHSNRNTYLHWYQQKPGQAPRLLIYKVSNRFSGVPDRFSGSGSGTDFTLKISRVEAEDVGVYYCGQGTQVPYTFGQGTKLEIK
B16: CE115HA000 A52aE (antibody, name in Kabat numbering, V domains shown)
VH: QVQLVESGGGVVQPGRSLRLSCAASGFTFSNAWMHWVRQAPGKGLEWVAQIKEKSNNYATYYAESVKGRFTISRDDSKNSLYLQMNSLKTEDTAVYYCRYVHYGAYYGVDAWGQGTTVTVSS
VL: DIVMTQSPLSLPVTPGEPASISCRSSQSLVHSNRNTYLHWYQQKPGQAPRLLIYKVSNRFSGVPDRFSGSGSGTDFTLKISRVEAEDVGVYYCGQGTQVPYTFGQGTKLEIK
B17: CE115HA000 A56G (antibody, name in Kabat numbering, V domains shown)
VH: QVQLVESGGGVVQPGRSLRLSCAASGFTFSNAWMHWVRQAPGKGLEWVAQIKAKSNNYGTYYAESVKGRFTISRDDSKNSLYLQMNSLKTEDTAVYYCRYVHYGAYYGVDAWGQGTTVTVSS
VL: DIVMTQSPLSLPVTPGEPASISCRSSQSLVHSNRNTYLHWYQQKPGQAPRLLIYKVSNRFSGVPDRFSGSGSGTDFTLKISRVEAEDVGVYYCGQGTQVPYTFGQGTKLEIK
B18: CE115HA000 A56L (antibody, name in Kabat numbering, V domains shown)
VH: QVQLVESGGGVVQPGRSLRLSCAASGFTFSNAWMHWVRQAPGKGLEWVAQIKAKSNNYLTYYAESVKGRFTISRDDSKNSLYLQMNSLKTEDTAVYYCRYVHYGAYYGVDAWGQGTTVTVSS
VL: DIVMTQSPLSLPVTPGEPASISCRSSQSLVHSNRNTYLHWYQQKPGQAPRLLIYKVSNRFSGVPDRFSGSGSGTDFTLKISRVEAEDVGVYYCGQGTQVPYTFGQGTKLEIK
B19: CE115HA000 A56Q (antibody, name in Kabat numbering, V domains shown)
VH: QVQLVESGGGVVQPGRSLRLSCAASGFTFSNAWMHWVRQAPGKGLEWVAQIKAKSNNYQTYYAESVKGRFTISRDDSKNSLYLQMNSLKTEDTAVYYCRYVHYGAYYGVDAWGQGTTVTVSS
VL: DIVMTQSPLSLPVTPGEPASISCRSSQSLVHSNRNTYLHWYQQKPGQAPRLLIYKVSNRFSGVPDRFSGSGSGTDFTLKISRVEAEDVGVYYCGQGTQVPYTFGQGTKLEIK
B20: CE115HA000 A56D (antibody, name in Kabat numbering, V domains shown)
VH: QVQLVESGGGVVQPGRSLRLSCAASGFTFSNAWMHWVRQAPGKGLEWVAQIKAKSNNYDTYYAESVKGRFTISRDDSKNSLYLQMNSLKTEDTAVYYCRYVHYGAYYGVDAWGQGTTVTVSS
VL: DIVMTQSPLSLPVTPGEPASISCRSSQSLVHSNRNTYLHWYQQKPGQAPRLLIYKVSNRFSGVPDRFSGSGSGTDFTLKISRVEAEDVGVYYCGQGTQVPYTFGQGTKLEIK

T1 sequence (P07766 23-126 limits assumed): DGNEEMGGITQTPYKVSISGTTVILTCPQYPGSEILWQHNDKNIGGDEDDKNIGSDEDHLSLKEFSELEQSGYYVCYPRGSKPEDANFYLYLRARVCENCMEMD

In one assay the target is CD3ε homodimer protein (human, UniProt P07766 23-126, limits assumed). Description: SPR, immobilized CD3ε homodimer.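 Note: biacore T200 surface plasmon resonance at 25 °C, antibody variants flowed as analytes over amine-coupled CD3ε homodimer on a CM4 chip, variant binding amount divided by that of GLS3000 antibody.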
Sequence of CD3ε homodimer protein (human, UniProt P07766 23-126, limits assumed) (P07766 23-126 limits assumed): as above
Regarding B1, the “ratio of amounts bound (vs GLS3000)” value stood at 1.17.

Consider B2, for which the “ratio of amounts bound (vs GLS3000)” value came to 0.24.

In the case of B3, the “ratio of amounts bound (vs GLS3000)” value is 0.23.

Turning to B4, the “ratio of amounts bound (vs GLS3000)” value came out at 0.32.

In the case of B5, the “ratio of amounts bound (vs GLS3000)” value stood at 0.17.

With B6, the “ratio of amounts bound (vs GLS3000)” value was 0.17.

A further assay concerns the target T1, CD3ε homodimer protein (human, UniProt P07766 23-126, limits assumed, sulfo-tag or biotin label in some ECL assays).
T1 construct: also called human CD3ε homodimer protein; CD3 (CD3ε)
Description: SPR, CD3ε homodimer on chip.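 Note: biacore SPR with antibody variants flowed as analyte over amine-coupled CD3ε homodimer on a CM chip, bound amount of each single-residue H chain variant over that of parent.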
Description: An appropriate amount of CD3ε homodimer protein was immobilized onto Sensor chip CM4 (GE Healthcare Japan Corp.) by the amine coupling method. Then, the antibody having an appropriate concentration was injected thereto as an analyte and allowed to interact with the CD3ε homodimer protein on the sensor chip. Then, the sensor chip was regenerated by the injection of 10 mmol/L glycine-HCl (pH 1.5). The assay was conducted at 25° C., and HBS-EP+ (GE Healthcare Japan Corp.) was used as a running buffer. […] Each parameter was calculated using Biacore T200 Evaluation Software (GE Healthcare Japan Corp.).
Specifically, when the amount of the antibody comprising CE115HA000 bound was defined as X and the amount of the H chain one-amino acid altered form bound was defined as Y, a value of Z (ratio of amounts bound)=Y/X was used.
Consider B7, for which the “ratio of amounts bound vs CE115HA000” value came out at 0.17.

Consider B8, for which the “ratio of amounts bound vs CE115HA000” value was 0.87.

On to B9, for which the “ratio of amounts bound vs CE115HA000” value came out at 0.52.

B10: the “ratio of amounts bound vs CE115HA000” value was 1.34.

Turning to B11, the “ratio of amounts bound vs CE115HA000” value came out at 0.33.

Take B12: the “ratio of amounts bound vs CE115HA000” value was found to be 1.05.

Turning to B13, the “ratio of amounts bound vs CE115HA000” value amounted to 0.15.

Consider B14, for which the “ratio of amounts bound vs CE115HA000” value was determined as 0.81.

With B15, the “ratio of amounts bound vs CE115HA000” value came to 1.35.

For B16, the “ratio of amounts bound vs CE115HA000” value amounted to 0.57.

Take B17: the “ratio of amounts bound vs CE115HA000” value worked out at 0.61.

In the case of B18, the “ratio of amounts bound vs CE115HA000” value came to 0.8.

For B19, the “ratio of amounts bound vs CE115HA000” value stood at 0.76.

B20: the “ratio of amounts bound vs CE115HA000” value worked out at 0.51.
